Test results published in publication PMC11903750.

What was measured:
[1] = biological target: 30S ribosomal subunit (E. coli) (UniProt P0A7R9); test: FRET or BRET; as a4, with 5 µM GE81112
[2] = biological target: 30S ribosomal subunit (E. coli) (UniProt P0A7R9); test: FRET or BRET; as a4, with 5 µM edeine

fold reduction of koff with GE81112 against no antibiotic [1]: 2 fold
fold reduction of koff with edeine against no antibiotic [2]: 4 fold
Substance: IF3 E166C, double-labelled (IF3DL) (from UniProt P0A707 1-180) (natural protein)
